Measurements published in publication PMC11374535.

Biological target: SlGrx9-nLUC
Experiment: luciferase complementation assay (LCA) in N. benthamiana leaves, quantified with ImageJ
Settings: parent: est. 6.1; read off a plot

Row | Substance | response
1 | cLUC-SlTrxh (from UniProt Q9LKW0) C54S | 6
2 | cLUC-SlTrxh (from UniProt Q9LKW0) C54W | 15
